Source: patent publication US20100297093A1
Where two headings read alike, the source gives them in different places.

Legend:
[1] = target: MART-1 peptide on HLA-A*02:01 (human); experiment: peptide titration, transfected CD4+ T cells, peptide-pulsed target cells; upper bound 100 fold; minimal effect in CD8+ T cells; full-length, on cells
[2] = target: MART-1:27-35 peptide presented by HLA-A2 on target cells (UniProt Q16655); experiment: cell-based or functional assay
[3] = target: MART-1:27-35 peptide presented by HLA-A2 on target cells (UniProt Q16655); experiment: cell-based or functional assay; remark: listed apart in the source

| fold lower peptide concentration recognised than with the WT TCR [1] [fold] | IFN-γ; CD4+ T; 624.38 [2] [pg/mL] | IFN-γ; CD4+ T; 1300 [2] [pg/mL] | IFN-γ; CD8+ T; 624.38 [2] [pg/mL] | IFN-γ; CD8+ T; 1300 [2] [pg/mL] | peptide titration; CD4+ T; fold lower MART-1:27-35 concentration recognized vs WT DMF4 [2] [fold] | IFN-γ; CD4+ T; 624.38 [3] [pg/mL] | IFN-γ; CD4+ T; 1300 [3] [pg/mL] | IFN-γ; CD8+ T; 624.38 [3] [pg/mL] | IFN-γ; CD8+ T; 1300 [3] [pg/mL] | Molecule |
| --- | --- | --- | --- | --- | --- | --- | --- | --- | --- | --- |
|  | 15800 | 11200 | 32800 | 78000 | 10 to 100 |  |  |  |  | DMF4 TCR, WT α + β51:A (G51A) |
|  |  |  |  |  |  | 20400 | 11100 | 36400 | 91800 | DMF4 TCR, αLA (T93L/G94A) + WT β (TCR, part only; not given: wild type beta chain, part only) TCR alpha: GQQLNQSPQSMFIQEGEDVSMNCTSSSIFNTWLWYKQDPGEGPVLLIALYKAGELTSNGRLTAQFGITRKDSFLNISASIPSDVGIYFCAGGLANQFYFGTGTSLTVIPNIQNPDPAVYQLRDSKSSDKSVCLFTDFDSQTNVSQSKDSDVYITDKTVLDMRSMDFKSNSAVAWSNKSDFACANAFNNSIIPEDTFFPSPESSCDVKLVEKSFETDTNLNFQNLSVIGFRILLLKVAGFNLLMTLRLWSS |

Continued, molecule first:

| Molecule | fold lower peptide concentration recognised than with the WT TCR [1] [fold] | IFN-γ; CD4+ T; 624.38 [2] [pg/mL] | IFN-γ; CD4+ T; 1300 [2] [pg/mL] | IFN-γ; CD8+ T; 624.38 [2] [pg/mL] | IFN-γ; CD8+ T; 1300 [2] [pg/mL] | peptide titration; CD4+ T; fold lower MART-1:27-35 concentration recognized vs WT DMF4 [2] [fold] | IFN-γ; CD4+ T; 624.38 [3] [pg/mL] | IFN-γ; CD4+ T; 1300 [3] [pg/mL] | IFN-γ; CD8+ T; 624.38 [3] [pg/mL] | IFN-γ; CD8+ T; 1300 [3] [pg/mL] |
| --- | --- | --- | --- | --- | --- | --- | --- | --- | --- | --- |
| DMF4 β51:A | > 10 |  |  |  |  |  |  |  |  |  |
| DMF4 anti-MART-1 TCR, wild type α and β chains |  | 3220 | 3480 | 47700 | 32800 |  |  |  |  |  |
